assay: soluble on expression in E. coli; label from the status in PepcDB or PDB records

| Sequence | soluble on expression in E. coli |
| --- | --- |
| MGQKKYVELSKDIFIFSYLCGGINFTDIANLTQENIVNGRLHYIRQKTGKLIKIGIPQEAMQIIKKYTDESNGYLFPILNVKVHKTALQKQNRIHKIRGKVNDILKTLGKRLGIEANITTYVARHSFASVLKKSGVNIALISEALGHSDLATTQIYLDSFDNEQVDEAMKNLLEHHHHHH | soluble |
| MKYQAAIFDMDGLLLDTERVCMRIFQEACEVQNLPFYEDVYLSIIGRNAAGIETIFRKAYGENLDRLHLEWRTRYNAVVKHQAIP | not soluble |
| GPGSMTRELHRLYVTEPAPPPSLYILTGAGTKAFCAGGDVIGLTTNNPPGCGREFFYWEYQVDYKASIIPAGQVCLWDGYVLGGGAGLSIGSAYRVASEKACFAMPEVAIGMFPDVGASWFLPRLSVPGLGLYMGLTGHRLRGADLVHLGLATHFVPSAKMGELEQALVSMSDAGDVEAVLDKYTTPTTQLPPCTIAHSISSLASHFDITADLTISSILDACREHAQTDPLAKAAADLMPSFSPTAMTLALELLKRGA | not soluble |
| MLRAKLLSWQEGVGSKTFEFDVDVEPRSYVISKVSQLSPIIASEDLTVCEGEVAVVGTRVIEIPENTVVRPVAAISHANGFVADVIECGAPGMVEDEKCINHAVFIPTRSGDVKEGDLLGMLRINFVRTGLLSRVIPSKPRVEERTVKASLTWVEGGVFYRENVTGTFSGYFESERCSLLPIVADERVRIEKGGVSAVEIERVDVKGGSIITPYGLAANAFAQLLDLVGGRTRKFEEDRVFDEAVLVGFSDGVVEKGEVLGLVCVMGESSGGGNSRQLQFSRKAGKGVVKTIHEYRSKPLRVGRKGEWRPAISDENRKLIRGVAEIIKIRPINVPDYAVVNPLGIMRQAYGTMVGGIANEPWSLESRKTIEEVVFLPIMDGEVRKGQLIGVFNVTRVAEGKLLEHHHHHH | soluble |
| MPSETPQAEVGPTGCPHRSGPHSAKGSLEKGSPEDKEAKEPLWIRPDAPSRCTWQLGRPASESPHHHTPPAKSPKILPDILKKIGDTPMVRINKIGKKFGLKCELLAKCEFFNAGGSVKDRISLRMIEDAERDGTLKPGDTIIEPTSGNTGIGLALAAAVRGYRCIIVMPEKMSSEKVDVLRALGAEIVRTPTNARFDSPESHVGVAWRLKNEIPNSHILDQYRNASNPLAHYDTTADEILQQCDGKLDMLVASVGTGGTITGIARKLKEKCPGCRIIGVDPEGSILAEPEELNQTEQTTYEVEGIGYDFIPTVLDRTVVDKWFKSNDEEAFTFARMLIAQEGLLCGGSAGSTVAVAVKAAQELQEGQRCVVILPDSVRNYMTKFLSDRWMLQKGFLKEEDLTEKKPWWWHLRVQELGLSAPLTVLPTITCGHTIEILREKGFDQAPVVDEAGVILGMVTLGNMLSSLLAGKVQPSDQVGKVIYKQFKQIRLTDTLGRLSHILEMDHFALVVHEQIQYHSTGKSSQRQMVFGVVTAIDLLNFVAAQERDQK | soluble |
| APEERDLTQEQTEKLLQFQDLTGIESMDQCRHTLEQHNWNIEAAVQDRLNEQEGVPSVFNPPPSRPLQVNTADHRIYSYVVSRPQPRGLLGWGYYLIMLPFRFTYYTILDIFRFALRFIRPDPRSRVTDPVGDIVSFMHSFEEKYGRAHPVFYQGTYSQALNDAKRELRFLLVYLHGDDHQDSDEFCRNTLCAPEVISLINTRMLFWACSTNKPEGYRVSQALRENTYPFLAMIMLKDRRMTVVGRLEGLIQPDDLINQLTFIMDANQTYLVSERLEREERNQTQVLRQQQDEAYLASLRADQEKERKKREERERKRRKEEEVQQQKLAEERRRQNLQEEKERKLECLPPEPSPDDPESVKIIFKLPNDSRVERRFHFSQSLTVIHDFLFSLKESPEKFQIEANFPRRVLPCIPSEEWPNPPTLQEAGLSHTEVLFVQDLTDE | soluble |
| MYIELRTSLEMFRSDLVDLEALANASRDALDQLPFVPKGPKMDDDEAHPNPDPESALRSGRLDSLVCATASAAQSALVTCVKLIDWAYEYEPDDEDDDDNDIVPMDDIDDDDEGGGSSGANGGGSNGSGRSGPPDNGDASAAPSVTADELANARPSRGGIALDLPPKPAPVA | not soluble |
| MIEINDVNKKYQQTTVLNEINERIPSGGITSIIGPNGAGKSTLLSIMSRLLAADSGNVLFNGLDVAKTSGDKLATILSVLRQENHFTSRLTVSDLVGFGRYPYSRGRLNKNDRQHIDAAMEFLNLMPLKDRYLDELSGGQRQRAYVAMVLCQDTSYILLDEPLNNLDMKHCVAMMKQLRRAADELHKTIILVIHDINFASAYSDHIIAMKNGEVIYRGAPAEIMQPSILEEIFDIKISIEKVQGQHIAVYYR | not soluble |
| KCLVLDLDGTLWGGVVGEDGIEGIKLGPTGSGKPFYEFQKYIKSLFKKGVILAVNSKNNYDDAMEVIRKHPYMVLREEDFADFEINWQDKASNMRAIAKKLNIGIDSMVFMDDD | not soluble |
